# T1: W3XX115-hPro1.ECD.His, IL2Rα ECD (Homo sapiens (Human), UniProt P01589 22-213)
# T1 construct: Entry includes the C-terminal 6xHis tag; also called CD25
# T1 sequence: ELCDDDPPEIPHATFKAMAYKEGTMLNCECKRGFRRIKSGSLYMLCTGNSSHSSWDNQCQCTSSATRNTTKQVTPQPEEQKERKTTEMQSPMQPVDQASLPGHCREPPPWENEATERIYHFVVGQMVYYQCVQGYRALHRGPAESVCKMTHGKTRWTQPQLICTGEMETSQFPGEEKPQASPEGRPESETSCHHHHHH
# T2: Human IL-2Rβ/γ (intermediate affinity IL-2 receptor) (human, UniProt P14784 27-551; P31785 23-369)
# T2 construct: whole, on cells; also called IL-2Rβ/γc; IL-2Rβ (CD122) and γ (CD132)
# T2 sequence (looked up) 1: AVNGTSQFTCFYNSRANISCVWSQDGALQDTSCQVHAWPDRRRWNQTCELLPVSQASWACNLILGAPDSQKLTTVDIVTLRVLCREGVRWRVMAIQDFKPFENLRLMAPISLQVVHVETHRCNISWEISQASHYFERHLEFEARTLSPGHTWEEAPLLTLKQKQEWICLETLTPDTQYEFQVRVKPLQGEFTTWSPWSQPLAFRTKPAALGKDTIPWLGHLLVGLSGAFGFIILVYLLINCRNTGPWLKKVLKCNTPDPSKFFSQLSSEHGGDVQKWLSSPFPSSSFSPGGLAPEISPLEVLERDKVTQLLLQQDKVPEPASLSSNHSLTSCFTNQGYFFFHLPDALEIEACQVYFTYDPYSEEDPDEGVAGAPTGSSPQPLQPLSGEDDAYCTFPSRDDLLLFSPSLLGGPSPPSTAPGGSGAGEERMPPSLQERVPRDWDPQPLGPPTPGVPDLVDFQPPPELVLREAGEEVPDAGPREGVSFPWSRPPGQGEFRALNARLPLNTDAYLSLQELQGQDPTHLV
# T2 sequence (looked up) 2: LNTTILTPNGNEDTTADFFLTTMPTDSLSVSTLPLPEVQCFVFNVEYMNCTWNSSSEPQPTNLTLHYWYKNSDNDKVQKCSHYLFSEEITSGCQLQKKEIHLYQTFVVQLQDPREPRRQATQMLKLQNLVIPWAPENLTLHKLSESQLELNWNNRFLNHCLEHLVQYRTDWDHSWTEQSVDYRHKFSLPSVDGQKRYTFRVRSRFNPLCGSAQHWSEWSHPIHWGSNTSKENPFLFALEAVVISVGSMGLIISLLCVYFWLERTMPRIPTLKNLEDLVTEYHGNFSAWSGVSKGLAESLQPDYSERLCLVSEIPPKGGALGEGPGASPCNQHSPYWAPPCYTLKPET
# T3: Human IL-2Rα/β/γ complex (high affinity IL-2 receptor) (human, UniProt P01589 22-272; P14784 27-551; P31785 23-369)
# T3 construct: whole, on cells
# T3 sequence (looked up) 1: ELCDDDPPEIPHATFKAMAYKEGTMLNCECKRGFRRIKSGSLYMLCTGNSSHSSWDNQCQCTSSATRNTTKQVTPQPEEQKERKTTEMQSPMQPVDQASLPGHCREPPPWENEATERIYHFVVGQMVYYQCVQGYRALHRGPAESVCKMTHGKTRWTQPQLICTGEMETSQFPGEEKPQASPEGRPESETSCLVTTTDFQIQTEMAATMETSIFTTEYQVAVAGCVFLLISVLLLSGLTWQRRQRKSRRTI
# T3 sequence (looked up) 2: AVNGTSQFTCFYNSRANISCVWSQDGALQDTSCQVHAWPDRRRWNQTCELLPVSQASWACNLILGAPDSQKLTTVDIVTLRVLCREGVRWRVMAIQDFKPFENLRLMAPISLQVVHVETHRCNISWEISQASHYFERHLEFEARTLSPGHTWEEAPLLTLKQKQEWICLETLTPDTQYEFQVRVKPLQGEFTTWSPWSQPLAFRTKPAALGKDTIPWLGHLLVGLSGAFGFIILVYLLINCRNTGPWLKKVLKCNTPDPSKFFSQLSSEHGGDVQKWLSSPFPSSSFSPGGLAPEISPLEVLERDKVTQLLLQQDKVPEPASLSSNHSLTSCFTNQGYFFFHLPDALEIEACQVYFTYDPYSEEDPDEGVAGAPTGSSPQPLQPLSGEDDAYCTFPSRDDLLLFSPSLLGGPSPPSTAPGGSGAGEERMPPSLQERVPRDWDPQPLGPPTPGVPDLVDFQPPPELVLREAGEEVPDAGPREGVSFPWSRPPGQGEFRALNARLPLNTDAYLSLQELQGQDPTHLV
# T3 sequence (looked up) 3: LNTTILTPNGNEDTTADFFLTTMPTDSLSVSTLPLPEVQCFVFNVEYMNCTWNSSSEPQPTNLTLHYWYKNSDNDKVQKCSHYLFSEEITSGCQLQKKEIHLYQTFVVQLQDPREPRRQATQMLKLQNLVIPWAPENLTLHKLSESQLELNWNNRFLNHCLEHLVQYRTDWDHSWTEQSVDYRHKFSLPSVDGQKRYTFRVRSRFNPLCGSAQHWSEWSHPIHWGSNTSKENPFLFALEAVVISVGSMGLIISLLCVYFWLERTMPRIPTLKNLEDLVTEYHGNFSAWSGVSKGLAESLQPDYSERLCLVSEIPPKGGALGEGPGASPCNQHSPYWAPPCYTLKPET
# T4: W369-hPro2.ECD.His, IL2Rβ ECD (human, UniProt P14784 27-239)
# T4 construct: Entry includes linker and C-terminal 6xHis tag; also called CD122
# T4 sequence: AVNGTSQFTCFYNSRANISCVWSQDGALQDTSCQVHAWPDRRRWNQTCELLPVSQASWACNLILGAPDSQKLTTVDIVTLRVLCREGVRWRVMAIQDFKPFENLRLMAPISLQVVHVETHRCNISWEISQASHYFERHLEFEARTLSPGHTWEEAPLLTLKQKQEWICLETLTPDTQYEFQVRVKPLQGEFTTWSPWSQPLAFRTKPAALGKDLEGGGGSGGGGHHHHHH
# What was measured:
# [1] = biological target: T1, W3XX115-hPro1.ECD.His, IL2Rα ECD; experiment: SPR Biacore 8K
# Procedure: (§1) IL-2 variants binding affinity to IL-2 receptor were detected by SPR using Biacore 8K. For IL-2Rα binding assay, each variant was captured on anti-human Fc immobilized CM5 sensor chip (cytiva). W3XX115-hPro1.ECD.His at different concentrations were injected over the sensor chip at a flow rate of 30 uL/min for an association phase of 60 s, followed by 90 s dissociation. The chip was then regenerated by 10 mM Glycine-HCl pH1.5 after each binding cycle. For IL-2Rγ binding assay, IL-2 variants were mixed with W369-hPro2.ECD.His as 1:1 before assay, were detected by SPR using Biacore 8K. W3XX115-hPro1.ECD.His was captured on anti-His immobilized CM5 sensor chip (cytiva). The mixture were injected over the sensor chip as described above. The sensorgrams of blank surface and buffer channel were subtracted from the test sensorgrams. The experimental data was fitted by steady state affinity model. Molecular weight of W3XX115-hPro1.ECD.His or W369-hPro1.ECD.His was used to calculate the molar concentration of analyte.
# (§2) For T3U0.E44-1 and T2U0.E44-33, no binding to IL-2Rα was detected.
# [2] = biological target: T2, Human IL-2Rβ/γ (intermediate affinity …); experiment: FACS, HH cells
# Procedure, shortened: (§3)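 HH (IL-2Rβ/γ), MJ20 and NK92 (IL-2Rα/β/γ) cells incubated with IL-2/Fc fusion proteins at indicated concentrations, 30 min at 4° C to avoid internalization. Bound protein detected with PE-anti-human Fc, 30 min at 4° C; median fluorescence intensity read by FACS.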
# [3] = biological target: T3, Human IL-2Rα/β/γ complex (high affinity …); experiment: FACS, MJ20 cells
# Procedure: (§4) Human cutaneous T cell lymphoma HH cells, malignant non-Hodgkin's lymphoma NK92 cells and cutaneous T cell lymphoma MJ20 cells were used for binding assay. They both constitutively express IL-2Rβ (CD122) and […] (CD132), and NK92 and MJ20 also expresses IL-2Rα (CD25). HH, NK92 and MJ20 cells were cultured following ATCC guidance, then transferred to a 96-plate for binding analysis. Cells were incubated with IL-2/Fc fusion proteins at the indicated concentrations for 30 min at 4° C. to avoid internalization. Binding was detected by 2nd antibody of PE-anti-human Fc at 4° C. for another 30 min. The median fluorescence intensity (MFI) on HH and NK92 cells was measured using FACS.
# [4] = biological target: T2, Human IL-2Rβ/γ (intermediate affinity …); experiment: cell-based or functional assay
# [5] = biological target: T3, Human IL-2Rα/β/γ complex (high affinity …); experiment: cell-based or functional assay
# [6] = biological target: T2, Human IL-2Rβ/γ (intermediate affinity …); experiment: FACS, HH cells; EC50 fold vs T2U0.E44-1
# Procedure, shortened: as §3
# [7] = biological target: T3, Human IL-2Rα/β/γ complex (high affinity …); experiment: FACS, MJ20 cells; EC50 fold vs T2U0.E44-1
# Procedure: as §4
# Mutations of F42 or R38 were involved in T2U0.E44-26 to generate IL-2 variants.
# [8] = biological target: T4, W369-hPro2.ECD.His, IL2Rβ ECD; experiment: SPR Biacore 8K; set-up for IL-2Rβ not described
# [9] = biological target: T1, W3XX115-hPro1.ECD.His, IL2Rα ECD; experiment: SPR Biacore 8K; variant captured via anti-human Fc, IL-2Rα ECD-His injected; steady state
# Procedure: as §1, §2
binder,measurement,setting,value
W3XX115-T2U0.E44-33.uIgG4V322 (Fc fusion) APTSSSTKKTQLQLEHLLLDLQMILNGINNYKNPKLTWMLTFKFYMPKKATELKHLQCLEEELKPLEEVLNLAQSKNFHLRPRDLISNINVIVLELKGSETTFMCEYADETATIVEFLNRWITFCQSILESKYGPPCPPCPAPEAAGGPSVFLFPPKPKDTLMISRTPEVTCVVVDVSQEDPEVQFNWYVDGVEVHNAKTKPREEQFNSTYRVVSVLTVLHQDWLNGKEYKCKVSNKGLPSSIEKTISKAKGQPREPQVYTLPPCQEEMTKNQVSLWCLVKGFYPSDIAVEWESNGQPENNYKTTPPVLDSDGSFFLYSRLTVDKSRWQEGNVFSCSVMHEALHNHYTQKSLSLSLG heavy: EIQLQQSGPELVKPGASVKVSCKASGYSFTDYNMYWVKQSHGESLEWIGYIDPYNGGTRYNQKFKGKATLTVDKSSSTAFMHLNSLTSEDSAVYYCARNGHWDGAWFAYWGQGTLVTVSAASTKGPSVFPLAPCSRSTSESTAALGCLVKDYFPEPVTVSWNSGALTSGVHTFPAVLQSSGLYSLSSVVTVPSSSLGTKTYTCNVDHKPSNTKVDKRVESKYGPPCPPCPAPEAAGGPSVFLFPPKPKDTLMISRTPEVTCVVVDVSQEDPEVQFNWYVDGVEVHNAKTKPREEQFNSTYRVVSVLTVLHQDWLNGKEYKCKVSNKGLPSSIEKTISKAKGQPREPQVCTLPPSQEEMTKNQVSLSCAVKGFYPSDIAVEWESNGQPENNYKTTPPVLDSDGSFFLVSRLTVDKSRWQEGNVFSCSVMHEALHNHYTQKSLSLSLG light: DIQMNQSPSSLSASLGDTITITCHASQNINVWLSWYQQKPGNIPKLLIYKASNLHTGVPSRFSGSRSGTGFTLTISSLQPEDIATYYCHQGQSYPFTFGSGTKLEIKRTVAAPSVFIFPPSDEQLKSGTASVVCLLNNFYPREAKVQWKVDNALQSGNSQESVTEQDSKDSTYSLSSTLTLSKADYEKHKVYACEVTHQGLSSPVTKSFNRGEC,fold affinity reduction compared to T2U0.E44-1,[1],~10 fold
same,EC50,[2],760 nM
same,EC50,[3],627 nM
same,Human CD8+ T Potency EC50 (STAT5 phosphorylation),[4],149 nM
same,Human CD8+ T Potency reduction,[4],41 fold
same,Human Treg Potency EC50 (STAT5 phosphorylation),[5],0.42 nM
same,Human Treg Potency reduction,[5],302 fold
same,Affinity reduction,[6],15 fold
same,Affinity reduction,[7],13.7 fold
same,Kd,[8],5870 nM
same,Kd,[9],1030 nM
